We go through 4 molecules from publication PMC6821725, “Unique structure and function of viral rhodopsins” (Nature Communications, 2019).

The target of data set [1] is T1, Organic Lake Phycodnavirus rhodopsin II (OLPVRII) (Organic Lake phycodnavirus, UniProt Z9UQ29F7D0).
T1 construct: expressed in E. coli SE1 or C41(DE3); monomeric and pentameric fractions in DDM
The data set is described as follows: X-ray crystal structure […] A, in meso; UV-Vis absorption. The following applies: covalent; Schiff base to Lys195; crystals from 0.2 M sodium malonate pH 4.6; spectra in DDM. Type of data set: binding.

The target of data set [2] is Asp85 (UniProt position 98, WARYADWLFTT). The following applies: cited from earlier work.
The target in data set [3] is OLPVRII triple mutant E26A/R36A/W203A (Organic Lake Phycodnavirus). The data set is described as follows: SEC. (In general: Size exclusion chromatography separates by hydrodynamic size, large species first.)
In data set [4] the target is Organic Lake Phycodnavirus rhodopsin II (Organic Lake Phycodnavirus). The data set is described as follows: SEC.
Data set [5] shares this target. The data set is described as follows: cross-linking; glutaraldehyde (10%), DDM-solubilized multimeric SEC fraction, 2 mg/ml protein, 8 h, 4 °C, read by SDS-PAGE.
The target is the same in data set [6]. The data set is described as follows: cross-linking; glutaraldehyde (10%), monomeric fraction reconstituted into POPC/POPG (4:1 by weight; POPC:POPS in another paragraph) liposomes, 1 mg/ml protein, 8 h, read by SDS-PAGE.
Data set [7] has the same target. The data set is described as follows: crystal structure; in meso crystallization in monoolein from the monomeric fraction, 0.2 M sodium malonate pH 4.6, 15% PEG 550 MME, 22 °C; space group P2_(1), five molecules in the asymmetric unit.

In the case of `CC1=C(/C=C/C(C)=C/C=C/C(C)=C/C=O)C(C)(C)CCC1` [all-trans-retinal], the “X-ray crystal structure 1.9 A, in meso; UV-Vis absorption” value in data set [1] is “The retinal cofactor is covalently bound to Lys195 through the Schiff base (RSB)”.
As usually defined, the pKa is the pH at which an ionisable group is half protonated. “Bacteriorhodopsin (bR) (Halobacterium salinarum)”: the pKa in data set [2] was 2.7.
One may read the stoichiometry N as a count of units in the complex or per binding partner. With “OLPVRII triple mutant E26A/R36A/W203A (natural protein)”, in data set [3], the pentamer:monomer ratio in the elution profile (pentamer:monomer) is 1 and the stoichiometry N is 5.
Turning to “Organic Lake Phycodnavirus rhodopsin II (natural protein)”, the pentamer:monomer ratio in the elution profile (pentamer:monomer) in data set [4] stood at 4. Also, the stoichiometry N in data set [4], in data set [5], in data set [6] and in data set [7] was 5 throughout.
